The target in one experiment is T1, FFA2R (GPR43) (Homo sapiens, UniProt O15552).
T1 construct: gene FFAR2; full-length WT receptor, transiently transfected in HEK293T cells together with a defined Galpha subunit, Rap1GAP-RlucII and rGFP-CAAX; plasmid from cDNA.org
T1 sequence (O15552 1-330): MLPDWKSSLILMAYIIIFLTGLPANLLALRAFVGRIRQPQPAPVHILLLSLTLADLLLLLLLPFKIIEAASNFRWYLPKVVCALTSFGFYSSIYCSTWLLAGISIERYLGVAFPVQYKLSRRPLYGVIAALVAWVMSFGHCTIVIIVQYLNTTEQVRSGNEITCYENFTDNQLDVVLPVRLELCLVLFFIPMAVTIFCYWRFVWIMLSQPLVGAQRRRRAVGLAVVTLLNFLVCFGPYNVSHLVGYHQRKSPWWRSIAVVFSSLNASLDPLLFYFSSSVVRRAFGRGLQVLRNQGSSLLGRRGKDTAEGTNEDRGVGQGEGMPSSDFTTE
Description: ebBRET effector membrane translocation assay (Rap1GAP-RlucII / rGFP-CAAX), Galpha-i1 activation. It is filed as cell-based. An excerpt:
ebBRET effector membrane translocation assay (Rap1GAP-RlucII / rGFP-CAAX), Galpha-i1 activation on FFA2R (GPR43)

In experiment [1] the target is T2, free fatty acid receptor 2 (FFA2R; GPR43), WT (human) (UniProt O15552).
T2 sequence: T1 sequence (O15552 1-330)

The target of experiment [2] is T2, free fatty acid receptor 2 (FFA2R; GPR43), WT (human). This is another data set of the same source.
The target is the same in experiment [3]. This is another data set of the same source.

Read-outs that look alike come from different tables or passages of the source.

Chain of β-arrestin2-RlucII (P32121 whole entry): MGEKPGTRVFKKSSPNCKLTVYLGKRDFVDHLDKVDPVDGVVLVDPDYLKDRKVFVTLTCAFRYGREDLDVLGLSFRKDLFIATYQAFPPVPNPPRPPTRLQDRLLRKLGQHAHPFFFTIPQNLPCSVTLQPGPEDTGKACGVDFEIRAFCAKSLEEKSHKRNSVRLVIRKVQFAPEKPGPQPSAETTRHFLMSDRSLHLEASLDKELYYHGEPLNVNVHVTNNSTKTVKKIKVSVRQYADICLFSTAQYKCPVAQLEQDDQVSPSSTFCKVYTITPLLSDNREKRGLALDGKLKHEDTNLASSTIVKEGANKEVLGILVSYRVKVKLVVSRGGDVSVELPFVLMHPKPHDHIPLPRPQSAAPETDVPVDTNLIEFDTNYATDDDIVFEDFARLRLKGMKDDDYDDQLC
Chain of β-arrestin1-RlucII (P49407 whole entry): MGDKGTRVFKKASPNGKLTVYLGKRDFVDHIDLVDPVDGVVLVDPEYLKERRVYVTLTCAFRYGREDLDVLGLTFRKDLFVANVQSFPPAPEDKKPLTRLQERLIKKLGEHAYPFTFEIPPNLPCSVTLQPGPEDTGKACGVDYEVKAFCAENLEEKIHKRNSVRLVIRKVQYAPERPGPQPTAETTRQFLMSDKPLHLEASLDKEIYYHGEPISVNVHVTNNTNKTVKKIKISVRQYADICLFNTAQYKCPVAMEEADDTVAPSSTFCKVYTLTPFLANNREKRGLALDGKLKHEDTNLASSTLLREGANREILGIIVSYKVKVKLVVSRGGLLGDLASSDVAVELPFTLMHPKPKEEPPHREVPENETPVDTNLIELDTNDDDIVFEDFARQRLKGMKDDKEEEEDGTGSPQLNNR

Take `Cc1nc(NC(=N)N)sc1-c1cccc(NC(=O)c2ccc(F)cc2)c1` [AZ1729]: the EC50 at FFA2R (GPR43) (read-out: AZ1729 / EC50) is 0.041 µM.
`CC(C)(C)[C@H](C(=O)Nc1ncc(-c2ccccc2)s1)c1ccc(Cl)cc1` [Cmp58, (S)-2-(4-chlorophenyl)-3,3-dimethyl-N-(5-phenylthiazol-2-yl)butanamide]: the EC50 on FFA2R (GPR43) (read-out: Cmp58 / EC50) was 2.28 µM.
Turning to “Gα11 (from UniProt P29992 1-359) (natural protein)”, the ebBRET (EMTA) max response, p63RhoGEF-RlucII + rGFP-CAAX, HEK293T; Cmp58 series, alone in experiment [1] is 0.33 ∆BRET^2. In experiment [2], the ebBRET (EMTA) max response, p63RhoGEF-RlucII + rGFP-CAAX, HEK293T; propionate series after AZ1729 (1 µM, 5 min), vehicle and modulator-alone signals subtracted was 1.36 ∆BRET^2; the ebBRET (EMTA) max response, p63RhoGEF-RlucII + rGFP-CAAX, HEK293T; propionate series after Cmp58 (1 µM, 5 min), vehicle and modulator-alone signals subtracted is 1.41 ∆BRET^2. Moreover, in experiment [3], the ebBRET (EMTA) max response, p63RhoGEF-RlucII + rGFP-CAAX, HEK293T; propionate series up to 1 mM was 1.82 ∆BRET^2.
In the case of “Gα13 (from UniProt Q14344 1-377) (natural protein)”, the ebBRET (EMTA) max response, PDZ-RhoGEF-RlucII + rGFP-CAAX, HEK293T; propionate series up to 1 mM in experiment [3] was 0.588 ∆BRET^2.
“Gα14 (from UniProt O95837 1-355) (natural protein)”: in experiment [1], the ebBRET (EMTA) max response, p63RhoGEF-RlucII + rGFP-CAAX, HEK293T; AZ1729 series, alone is 0.614 ∆BRET^2 and the ebBRET (EMTA) max response, p63RhoGEF-RlucII + rGFP-CAAX, HEK293T; Cmp58 series, alone was 0.195 ∆BRET^2. Further, in experiment [3], the ebBRET (EMTA) max response, p63RhoGEF-RlucII + rGFP-CAAX, HEK293T; propionate series up to 1 mM is 0.677 ∆BRET^2.
In the case of “Gα15 (from UniProt P30679 1-374) (natural protein)”, in experiment [1], the ebBRET (EMTA) max response, p63RhoGEF-RlucII + rGFP-CAAX, HEK293T; AZ1729 series, alone is 0.74 ∆BRET^2; the ebBRET (EMTA) max response, p63RhoGEF-RlucII + rGFP-CAAX, HEK293T; Cmp58 + AZ1729 series, no propionate is 0.43 ∆BRET^2; the ebBRET (EMTA) max response, p63RhoGEF-RlucII + rGFP-CAAX, HEK293T; Cmp58 series, alone is 0.588 ∆BRET^2. In experiment [2], the ebBRET (EMTA) max response, p63RhoGEF-RlucII + rGFP-CAAX, HEK293T; propionate series after AZ1729 (a lower concentration than 1 µM, not given), vehicle and modulator-alone signals subtracted was 0.533 ∆BRET^2; the ebBRET (EMTA) max response, p63RhoGEF-RlucII + rGFP-CAAX, HEK293T; propionate series after Cmp58 (a lower concentration than 1 µM, not given), vehicle and modulator-alone signals subtracted is 0.503 ∆BRET^2. The ebBRET (EMTA) max response, p63RhoGEF-RlucII + rGFP-CAAX, HEK293T; propionate series up to 1 mM in experiment [3] was 0.68 ∆BRET^2.
“Gαi1 (from UniProt P63096 1-354) (natural protein)”: in experiment [1], the ebBRET (EMTA) max response, Rap1GAP-RlucII + rGFP-CAAX, HEK293T; AZ1729 series, alone was 0.584 ∆BRET^2; the ebBRET (EMTA) max response, Rap1GAP-RlucII + rGFP-CAAX, HEK293T; Cmp58 + AZ1729 series, no propionate was 0.6 ∆BRET^2; the ebBRET (EMTA) max response, Rap1GAP-RlucII + rGFP-CAAX, HEK293T; Cmp58 series, alone is 0.525 ∆BRET^2. In addition, in experiment [2], the ebBRET (EMTA) max response, Rap1GAP-RlucII + rGFP-CAAX, HEK293T; propionate series after AZ1729 (1 µM, 5 min), vehicle and modulator-alone signals subtracted is 0.817 ∆BRET^2; the ebBRET (EMTA) max response, Rap1GAP-RlucII + rGFP-CAAX, HEK293T; propionate series after Cmp58 (1 µM, 5 min), vehicle and modulator-alone signals subtracted is 0.841 ∆BRET^2. Also, the ebBRET (EMTA) max response, Rap1GAP-RlucII + rGFP-CAAX, HEK293T; propionate series up to 1 mM in experiment [3] was 0.755 ∆BRET^2.
Turning to “Gαi2 (from UniProt P04899 1-355) (natural protein)”, in experiment [1], the ebBRET (EMTA) max response, Rap1GAP-RlucII + rGFP-CAAX, HEK293T; AZ1729 series, alone was 0.664 ∆BRET^2; the ebBRET (EMTA) max response, Rap1GAP-RlucII + rGFP-CAAX, HEK293T; Cmp58 + AZ1729 series, no propionate was 0.59 ∆BRET^2; the ebBRET (EMTA) max response, Rap1GAP-RlucII + rGFP-CAAX, HEK293T; Cmp58 series, alone was 0.567 ∆BRET^2. In experiment [2], the ebBRET (EMTA) max response, Rap1GAP-RlucII + rGFP-CAAX, HEK293T; propionate series after AZ1729 (1 µM, 5 min), vehicle and modulator-alone signals subtracted was 0.481 ∆BRET^2; the ebBRET (EMTA) max response, Rap1GAP-RlucII + rGFP-CAAX, HEK293T; propionate series after Cmp58 (1 µM, 5 min), vehicle and modulator-alone signals subtracted was 0.74 ∆BRET^2. The ebBRET (EMTA) max response, Rap1GAP-RlucII + rGFP-CAAX, HEK293T; propionate series up to 1 mM in experiment [3] is 0.865 ∆BRET^2.
Take “Gαi3 (from UniProt P08754 1-354) (natural protein)”: in experiment [1], the ebBRET (EMTA) max response, Rap1GAP-RlucII + rGFP-CAAX, HEK293T; AZ1729 series, alone is 0.553 ∆BRET^2; the ebBRET (EMTA) max response, Rap1GAP-RlucII + rGFP-CAAX, HEK293T; Cmp58 + AZ1729 series, no propionate is 0.485 ∆BRET^2; the ebBRET (EMTA) max response, Rap1GAP-RlucII + rGFP-CAAX, HEK293T; Cmp58 series, alone was 0.574 ∆BRET^2. In addition, in experiment [2], the ebBRET (EMTA) max response, Rap1GAP-RlucII + rGFP-CAAX, HEK293T; propionate series after AZ1729 (1 µM, 5 min), vehicle and modulator-alone signals subtracted was 0.533 ∆BRET^2; the ebBRET (EMTA) max response, Rap1GAP-RlucII + rGFP-CAAX, HEK293T; propionate series after Cmp58 (1 µM, 5 min), vehicle and modulator-alone signals subtracted is 0.485 ∆BRET^2. In addition, the ebBRET (EMTA) max response, Rap1GAP-RlucII + rGFP-CAAX, HEK293T; propionate series up to 1 mM in experiment [3] was 0.859 ∆BRET^2.
Consider “GαoA (from UniProt P09471 1-354) (natural protein)”, for which, in experiment [1], the ebBRET (EMTA) max response, Rap1GAP-RlucII + rGFP-CAAX, HEK293T; AZ1729 series, alone was 0.19 ∆BRET^2 and the ebBRET (EMTA) max response, Rap1GAP-RlucII + rGFP-CAAX, HEK293T; Cmp58 series, alone was 0.237 ∆BRET^2. Moreover, the ebBRET (EMTA) max response, Rap1GAP-RlucII + rGFP-CAAX, HEK293T; propionate series up to 1 mM in experiment [3] is 0.415 ∆BRET^2.
Turning to “GαoB (from UniProt P09471-2 1-354) (natural protein)”, in experiment [1], the ebBRET (EMTA) max response, Rap1GAP-RlucII + rGFP-CAAX, HEK293T; AZ1729 series, alone is 0.994 ∆BRET^2; the ebBRET (EMTA) max response, Rap1GAP-RlucII + rGFP-CAAX, HEK293T; Cmp58 + AZ1729 series, no propionate was 0.937 ∆BRET^2; the ebBRET (EMTA) max response, Rap1GAP-RlucII + rGFP-CAAX, HEK293T; Cmp58 series, alone was 0.742 ∆BRET^2. In addition, in experiment [2], the ebBRET (EMTA) max response, Rap1GAP-RlucII + rGFP-CAAX, HEK293T; propionate series after AZ1729 (1 µM, 5 min), vehicle and modulator-alone signals subtracted is 1.62 ∆BRET^2; the ebBRET (EMTA) max response, Rap1GAP-RlucII + rGFP-CAAX, HEK293T; propionate series after Cmp58 (1 µM, 5 min), vehicle and modulator-alone signals subtracted is 1.48 ∆BRET^2. For the same compound, the ebBRET (EMTA) max response, Rap1GAP-RlucII + rGFP-CAAX, HEK293T; propionate series up to 1 mM in experiment [3] was 1.81 ∆BRET^2.
For the compound “Gαq (from UniProt P50148 1-359) (natural protein)”, in experiment [1], the ebBRET (EMTA) max response, p63RhoGEF-RlucII + rGFP-CAAX, HEK293T; AZ1729 series, alone is 0.337 ∆BRET^2; the ebBRET (EMTA) max response, p63RhoGEF-RlucII + rGFP-CAAX, HEK293T; Cmp58 + AZ1729 series, no propionate was 0.121 ∆BRET^2; the ebBRET (EMTA) max response, p63RhoGEF-RlucII + rGFP-CAAX, HEK293T; Cmp58 series, alone was 0.132 ∆BRET^2. Further, in experiment [2], the ebBRET (EMTA) max response, p63RhoGEF-RlucII + rGFP-CAAX, HEK293T; propionate series after AZ1729 (1 µM, 5 min), vehicle and modulator-alone signals subtracted is 1.04 ∆BRET^2; the ebBRET (EMTA) max response, p63RhoGEF-RlucII + rGFP-CAAX, HEK293T; propionate series after Cmp58 (1 µM, 5 min), vehicle and modulator-alone signals subtracted is 1.01 ∆BRET^2. For the same compound, in experiment [3], the ebBRET (EMTA) max response, p63RhoGEF-RlucII + rGFP-CAAX, HEK293T; propionate series up to 1 mM is 1.55 ∆BRET^2.
Take “Gαz (from UniProt P19086 1-355) (natural protein)”: the ebBRET (EMTA) max response, Rap1GAP-RlucII + rGFP-CAAX, HEK293T; propionate series up to 1 mM in experiment [3] is 0.757 ∆BRET^2.
As for “β-arrestin1-RlucII (from UniProt P49407 1-418) (natural protein)”, in experiment [1], the ebBRET max response, β-arrestin1-RlucII + rGFP-CAAX (with or without GRK2), HEK293T; AZ1729 series, alone was 0.166 ∆BRET^2 and the ebBRET max response, β-arrestin1-RlucII + rGFP-CAAX (with or without GRK2), HEK293T; Cmp58 series, alone was 0.0827 ∆BRET^2. Besides, the ebBRET max response, β-arrestin1-RlucII + rGFP-CAAX (with or without GRK2), HEK293T; propionate series up to 1 mM in experiment [3] was 0.23 ∆BRET^2.
On to “β-arrestin2-RlucII (from UniProt P32121 1-409) (natural protein)”, for which, in experiment [2], the ebBRET max response, β-arrestin2-RlucII + rGFP-CAAX (with or without GRK2), HEK293T; propionate series after AZ1729 (1 µM, 5 min), vehicle and modulator-alone signals subtracted is 0.775 ∆BRET^2; the ebBRET max response, β-arrestin2-RlucII + rGFP-CAAX (with or without GRK2), HEK293T; propionate series after Cmp58 (1 µM, 5 min), vehicle and modulator-alone signals subtracted was 0.774 ∆BRET^2. In addition, the ebBRET max response, β-arrestin2-RlucII + rGFP-CAAX (with or without GRK2), HEK293T; propionate series up to 1 mM in experiment [3] is 0.799 ∆BRET^2.

The record behind these values is publication PMC12930632, “Free fatty acid receptor 2 allosterism is defined by cellular context” (Cell Communication and Signaling : CCS, 2026).
